Experimental findings from patent US20220213176A1 (SHANGHAITECH UNIVERSITY, published 2022) are described below.

Assay [1] deals with T1, HCoV-NL63 spike (HCoV-NL63, UniProt Q6Q1S2 19-1356).
T1 construct: whole, on cells
T1 sequence: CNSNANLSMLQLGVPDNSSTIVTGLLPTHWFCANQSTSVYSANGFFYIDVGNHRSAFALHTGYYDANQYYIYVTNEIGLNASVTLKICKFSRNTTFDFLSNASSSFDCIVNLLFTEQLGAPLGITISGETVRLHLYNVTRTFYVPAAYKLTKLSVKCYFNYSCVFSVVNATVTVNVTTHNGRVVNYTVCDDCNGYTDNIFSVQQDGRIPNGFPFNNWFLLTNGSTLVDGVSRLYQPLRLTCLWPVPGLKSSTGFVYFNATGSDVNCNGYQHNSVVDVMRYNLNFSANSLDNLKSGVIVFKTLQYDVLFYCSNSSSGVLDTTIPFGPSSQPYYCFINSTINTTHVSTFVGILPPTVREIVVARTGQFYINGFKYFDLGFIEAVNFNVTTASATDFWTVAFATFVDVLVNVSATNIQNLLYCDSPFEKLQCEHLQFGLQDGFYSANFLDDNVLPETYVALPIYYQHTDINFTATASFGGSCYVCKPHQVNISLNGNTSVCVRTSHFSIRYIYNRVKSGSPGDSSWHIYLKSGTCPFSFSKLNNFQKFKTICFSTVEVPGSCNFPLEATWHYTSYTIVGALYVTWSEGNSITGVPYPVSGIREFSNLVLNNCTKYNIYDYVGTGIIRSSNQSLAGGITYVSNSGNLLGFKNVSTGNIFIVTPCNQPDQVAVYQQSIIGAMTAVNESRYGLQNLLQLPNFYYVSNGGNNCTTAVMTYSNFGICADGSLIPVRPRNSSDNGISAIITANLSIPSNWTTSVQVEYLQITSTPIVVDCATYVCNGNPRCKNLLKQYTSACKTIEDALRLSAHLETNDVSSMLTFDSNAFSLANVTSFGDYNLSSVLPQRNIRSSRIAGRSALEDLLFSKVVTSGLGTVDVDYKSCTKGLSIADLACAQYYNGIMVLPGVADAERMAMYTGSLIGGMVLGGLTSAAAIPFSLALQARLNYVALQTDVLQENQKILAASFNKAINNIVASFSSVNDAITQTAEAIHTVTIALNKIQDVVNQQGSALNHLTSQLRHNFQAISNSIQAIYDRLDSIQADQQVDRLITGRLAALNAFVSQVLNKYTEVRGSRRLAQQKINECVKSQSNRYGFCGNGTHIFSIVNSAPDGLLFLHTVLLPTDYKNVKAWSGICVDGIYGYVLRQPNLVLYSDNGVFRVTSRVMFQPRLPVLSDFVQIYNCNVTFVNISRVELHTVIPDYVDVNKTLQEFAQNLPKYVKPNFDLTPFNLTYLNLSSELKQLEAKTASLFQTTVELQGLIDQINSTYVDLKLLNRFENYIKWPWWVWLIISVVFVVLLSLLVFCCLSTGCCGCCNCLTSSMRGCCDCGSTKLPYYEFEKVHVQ
Description: FACS, transfected HEK293T cells, IgG4 antibody.

Assay [2] has as its target T2, HCoV-OC43 spike (HCoV-OC43, UniProt P36334 14-1353).
T2 construct: whole, on cells; also called HCoV-0C43 spike
T2 sequence: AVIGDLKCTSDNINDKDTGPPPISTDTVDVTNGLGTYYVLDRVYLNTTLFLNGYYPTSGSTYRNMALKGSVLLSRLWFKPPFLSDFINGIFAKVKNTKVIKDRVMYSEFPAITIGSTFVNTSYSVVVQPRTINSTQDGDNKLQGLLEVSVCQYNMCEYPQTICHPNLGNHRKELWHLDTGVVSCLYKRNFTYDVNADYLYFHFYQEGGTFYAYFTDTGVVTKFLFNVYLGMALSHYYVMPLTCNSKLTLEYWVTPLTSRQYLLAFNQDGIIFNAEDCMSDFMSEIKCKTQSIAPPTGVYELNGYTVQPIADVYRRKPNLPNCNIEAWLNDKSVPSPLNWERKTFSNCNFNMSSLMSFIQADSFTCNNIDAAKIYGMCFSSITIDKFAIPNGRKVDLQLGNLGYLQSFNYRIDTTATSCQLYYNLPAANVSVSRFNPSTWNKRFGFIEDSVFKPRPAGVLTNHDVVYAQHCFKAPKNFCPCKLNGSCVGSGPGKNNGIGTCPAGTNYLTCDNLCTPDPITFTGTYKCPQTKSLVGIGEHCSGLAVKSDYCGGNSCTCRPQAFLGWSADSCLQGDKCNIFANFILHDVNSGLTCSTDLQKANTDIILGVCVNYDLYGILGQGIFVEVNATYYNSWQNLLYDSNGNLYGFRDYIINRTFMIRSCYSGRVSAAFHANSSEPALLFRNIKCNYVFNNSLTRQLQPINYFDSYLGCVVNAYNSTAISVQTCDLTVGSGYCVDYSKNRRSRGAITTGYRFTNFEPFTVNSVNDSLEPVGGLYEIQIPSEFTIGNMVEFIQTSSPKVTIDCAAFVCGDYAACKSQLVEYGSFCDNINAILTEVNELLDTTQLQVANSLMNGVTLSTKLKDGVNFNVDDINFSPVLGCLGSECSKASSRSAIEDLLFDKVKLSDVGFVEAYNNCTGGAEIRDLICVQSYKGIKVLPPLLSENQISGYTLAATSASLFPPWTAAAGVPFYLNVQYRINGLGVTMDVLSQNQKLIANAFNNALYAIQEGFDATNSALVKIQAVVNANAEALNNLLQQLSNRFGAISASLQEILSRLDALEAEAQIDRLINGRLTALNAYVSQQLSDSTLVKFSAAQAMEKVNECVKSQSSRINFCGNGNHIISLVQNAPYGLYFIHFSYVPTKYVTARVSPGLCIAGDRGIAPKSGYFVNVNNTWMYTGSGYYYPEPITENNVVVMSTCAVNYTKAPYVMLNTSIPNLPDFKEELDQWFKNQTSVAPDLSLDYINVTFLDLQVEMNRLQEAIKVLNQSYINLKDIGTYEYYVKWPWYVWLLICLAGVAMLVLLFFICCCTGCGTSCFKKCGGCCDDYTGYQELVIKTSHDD
The assay can be described thus: FACS, transfected HEK293T cells, IgG4 antibody. (In flow cytometry, cells or beads pass a laser one at a time.)

Assay [3] concerns the target spike of authentic SARS-CoV-2 virus BetaCoV/Australia/VIC01/2020 (SARS-CoV-2). The assay can be described thus: cell-based or functional assay.

B1: S-B8 (antibody, V domains shown)
VH: QVQLVQSGGGLIQPGGSLRLSCAASGFTVSLSHMNWVRQAPGKGLEWVSITYGDGNSDYADSVKGRFTISRDNSKNTLYLQMNSLRAEDTAVYYCAREYYYGMDVWGQGTTVTVSS
VL: not shown
notes: also called S-B8 dimer
With B1, the binding result in assay [1] and in assay [2] was “no binding” in each case. Moreover, the “NT50, authentic virus B VIC01 neutralization” value in assay [3] came out at 0.88 nM.

B2: S-E6 (antibody, V domains shown)
VH: QVTLRESGPGLVKPSETLSLTCAVSGGSLSSVNYYWSWIRQHPGKGLEWIGYIYYSGSTNYNPSLKSRVTMSLDTSKNQFSLKLSSVTAADTAVYYCATPGAIMGALHIWGQGTLVTVSS
VL: QAVLTQPSSASSTPGQRVIISCSGSSSNIGSNTVSWYQQVPGAAPKLLIYFDYRRPSGVPDRFSGTRSGTSASLGISGLQSEDEADYYCAAWDDSLSAWVFGRGTKLTVLG
notes: also called S-E6 dimer; dimer S-E6
With B2, the binding result in assay [1] and in assay [2] was “no binding” throughout. The “NT50, authentic virus B VIC01 neutralization” value in assay [3] is 0.15 nM.

B3: S-D4 (antibody, V domains shown)
VH: QVQLQESGGGVVQPGRSLRLSCEVSGFTFSDYGMHWVRQAPGKGLEWVAVIWSEGSTEYYADSVKGRFTISRDNSKDTLYLQMNSLRAEDTAVYYCARPGYPTSTDRSPAAAGARQYYYYGMDVWGQGTTVTVSS
VL: NFMLTQPHSVSESPGKTVTISCTRSGGSGAANYVQWYQQRPGSSPTTLIYEDSRRPPGVPDRFSGSVDTSSNSASLTISGLQTEDEADYYCQSYDSSNHVVFGGGTKLTVLG
notes: also called S-D4 dimer; S-D4 IgG4
As to B3, the binding result in assay [1] and in assay [2] was “no binding” throughout. Further, the “NT50, authentic virus B VIC01 neutralization” value in assay [3] worked out at 2.04 nM.
